In patent US20040072369A1, “Methods for assaying for urea and kits for use therein” (priority 2002, published 2004):

Tests used:
[1] = system: UreD-GFP fusion protein (urea-inducible ureD promoter); assay: Urea induction of UreD-GFP fusion, Western blot with anti-GFP; assay type: cell-based, P. mirabilis HI4320; details: 0-500 mM urea tested (FIG. 1)
Source text: Thus, to investigate in vivo expression of P. mirabilis urease, the gene encoding green fluorescent protein (GFP) was used to construct reporter fusions. Translational fusions of urease accessory gene ureD, which is preceded by a urea-inducible promoter, were made with gfp (modified to express S65TIV68L/S72A, a well-known variant of gfp). The constructs were confirmed by sequencing of the fusion junctions. UreD-GFP fusion protein was induced by urea in both E. coli DH5a and P. mirabilis HI4320. Thereafter, Western blotting was carried out with antiserum raised against GFP.

[2] = system: ureD promoter (PureD-lacZ reporter construct); assay: β-galactosidase reporter assay (PureD-lacZ) with UreR constructs; assay type: cell-based, E. coli Top10
Experimental: Cultures were grown to mid-log phase and induced with 0.2% (w/v) arabinose in the presence or absence of 100 mM urea for 90 min. All constructs were assayed in duplicate in five independent experiments.
More specifically, wild-type ureR was cloned into the NcoI/XhoI site of pBAD/MycHisA (Invitrogen) to create pCP016 (Poore et al, supra). This construct was used to create alanine mutants using overlapping PCR site-directed mutagenesis as described by Ho et al, Gene, 71:51-59 (1989); and Poore et al, supra. Full-length mutant ureR PCR products were then constructed by ligation into the NcoI/XhoI site of pBAD/MycHisA. Following PCR mutation to Ala, all of the cloned products in the pBAD vector were verified by sequencing. The constructs were then cotransformed with the reporter vector PureD-lacZ into E. coli Top10 (pCC142) (Invitrogen). The β-gal reporter construct pCC042 (tetR) carries a transcriptional fusion of the ureD promoter (pureD) and lacZ (Poore et al, supra). Unless otherwise stated, strains were cultured in Luria broth supplemented with ampicillin (100 μg/ml), kanamycin (50 μg/ml), or tetracycline (15 μg/ml) as required. Thereafter, activity was determined using a β-galactosidase reporter assay in the absence and presence of 100 mM urea.
More specifically, overnight cultures were diluted 1:10 into fresh medium supplemented with ampicillin. Mid-exponential cultures were induced with 0.2% (w/v) arabinose and either no urea or 100 mM urea for 1 h. Bacterial suspensions were placed on ice for 10 min and then permeabilized with 0.1% (w/v) SDS (50 μl) and chloroform (100 μl) at room temperature for 30 min. Aliquots (20-50 μl) were diluted to 1.0 ml in Z buffer comprising 200 μl o-nitrophenyl-β-D-galactopyranoside (4.0 mg/ml) and were incubated at room temperature. Timed reactions were stopped by addition of 1.0 M Na2CO3 (500 μl) and the optical densities at 420 nm and 550 nm were used to calculate Miller units for each assay (Platt et al, “Assays of β-galactosidase Activity”, In: Miller (ed.), Experiments in Molecular Genetics, Cold Spring Harbor Press, Cold Spring Harbor, N.Y., pages 352-355 (1972)). […] The results, which are shown in Table 1 below, are expressed as the average of at least three independent experiments.
The UreR Trp point mutants were confirmed by sequencing and were tested for the ability to induce β-galactosidase expression using the PureD-lacZ reporter assay in the presence of 100 mM urea as described above.

[3] = Trp emission spectra of purified nUreR Trp mutants titrated with urea; assay type: binding; details: upon addition of urea (0-150 mM); excitation 280 nm; room temperature
Experimental: Protein samples (2.0 μM) in 50 mM PBS (pH 7.0), were excited at 280 nm at room temperature.
Three independent experiments were used to calculate the binding constant for this mutant. ΔTrp Emission is the difference in Trp emission intensity with and without urea. The binding constant was determined by fitting the data to the corresponding Hill parameters.
More specifically, Trp emission spectra were collected at room temperature using a Varian Cary Eclipse spectrofluorometer. Purified nUreR Trp mutants (5.0 μM) were excited at 280 nm and urea-dependent emission spectra were measured on the same sample following titration with increasing concentrations (0-150 mM) of urea.
The corresponding Hill parameters were invoked using the curve fitting functions packaged with the Microcal Origin 6.0 data analysis graphing program (Northampton, Mass.).
Trp fluorescence emission spectra from 300-450 nm were taken in the presence of increasing concentrations of urea (0, 0.05, 1, 10, 100 and 150 mM).

NC(N)=O [urea]
urea concentration giving highest induction of UreD-GFP [1]: 200 to 500 mM

B1: Y54W UreR (protein, UniProt Q02458 1-293, looked up, variant Y54W)
Urease operon transcriptional …: MEYKHILSSNQISLKTFYIENPMIAIVYGAKGEICINGQTITVTTNLTLIIPKWSQVSCDVTNFFPTKPIELHTLVLSETELQSVFSLLKPLIKSGAPITRHLPDYHLSTPEVVKTNFTLLQQCLPLEHGTPSQETLFMQQSLFFILLAVYHEGVDILNIFRFNYDEPKNQAITHLITQDPQRKWHLEDVAKTLYTTPSTLRRHLSKEGVSFCQLLLDVRMPIALNYLTFSNYSVFQISHRCGFGSNAYFCDAFKRKYGMTPSQFRTQSRQANDPNAIATMASQNDESIKKVF
fold induction in β-galactosidase activity ([2]; addition of 100 mM urea (FIG. 3)): 2.8 fold | β-galactosidase reporter activity compared to wild-type UreR ([2]; full-length UreR Trp point mutants, 100 mM urea (FIG. 3)): overall reduction in the level of activation

B2: Wild-type: wild-type P. mirabilis UreR expressed from pBAD/MycHisA (pCP016) (protein, UniProt Q02458 1-293, looked up)
Urease operon transcriptional …: MEYKHILSSNQISLKTFYIENPMIAIVYGAKGEICINGQTITVTTNLTLIIPKYSQVSCDVTNFFPTKPIELHTLVLSETELQSVFSLLKPLIKSGAPITRHLPDYHLSTPEVVKTNFTLLQQCLPLEHGTPSQETLFMQQSLFFILLAVYHEGVDILNIFRFNYDEPKNQAITHLITQDPQRKWHLEDVAKTLYTTPSTLRRHLSKEGVSFCQLLLDVRMPIALNYLTFSNYSVFQISHRCGFGSNAYFCDAFKRKYGMTPSQFRTQSRQANDPNAIATMASQNDESIKKVF
modifications: Myc-His tag from pBAD/MycHisA
β-Galactosidase Activity (Miller units), 0 mM urea ([2]; 0 mM urea, 0.2% arabinose induction, average of at least three experiments): 632 ± 203 Miller units | β-Galactosidase Activity (Miller units), 100 mM urea ([2]; 100 mM urea, 0.2% arabinose induction, average of at least three experiments): 3709 ± 1570 Miller units

B3: Y151W nUreR (protein, UniProt Q02458 1-293, looked up, variant Y151W)
Urease operon transcriptional …: MEYKHILSSNQISLKTFYIENPMIAIVYGAKGEICINGQTITVTTNLTLIIPKYSQVSCDVTNFFPTKPIELHTLVLSETELQSVFSLLKPLIKSGAPITRHLPDYHLSTPEVVKTNFTLLQQCLPLEHGTPSQETLFMQQSLFFILLAVWHEGVDILNIFRFNYDEPKNQAITHLITQDPQRKWHLEDVAKTLYTTPSTLRRHLSKEGVSFCQLLLDVRMPIALNYLTFSNYSVFQISHRCGFGSNAYFCDAFKRKYGMTPSQFRTQSRQANDPNAIATMASQNDESIKKVF
% Decrease in Trp Emission [3]: 9 ± 2%
